Reference: patent publication US20210246166A1 (Bayer, published 2021)
Numbered stars: 1 amine (or outer) side, 2 acyl side, 3 side chain; on linkers, the order of the positions; unused ones are H or OH. Bridge positions count the residues as written; N and C are the ends. Square brackets hold non-standard residues; d marks the D form. Primed or numbered codes have the meaning given here. Ends that are not written are not given here. TTDS(3) = 1,13-Diamino-4,7,10-trioxatridecan-succinamic acid; Pro(3S,4R-methano) = O=C(O)[C@H]1NC[C@@H]2C[C@@H]21; cPrCO(1-aminomethyl) = O=C(C1(CN[*:1])CC1)[*:2]; Oic = O=C(O)[C@@H]1C[C@@H]2CCCC[C@@H]2N1; PEG6 = NCCOCCOCCOCCOCCOCCOCCC(=O)O; tBuAla = CC(C)(C)C[C@H](N)C(=O)O; Pen = CC(C)(S)[C@H](N)C(=O)O; NMeC = CN[C@@H](CS)C(=O)O; PEG3 = NCCOCCOCCOCCC(=O)O; Nle = CCCC[C@H](N)C(=O)O; Orn = NCCC[C@H](N)C(=O)O; Aze = O=C(O)[C@@H]1CCN1; Nva = CCC[C@H](N)C(=O)O; Sar = CNCC(=O)O

T1: recombinant human MASP1 active protease (amino acids 297-699, C-terminal His Tag) (human, UniProt P48740 297-699)
T1 sequence: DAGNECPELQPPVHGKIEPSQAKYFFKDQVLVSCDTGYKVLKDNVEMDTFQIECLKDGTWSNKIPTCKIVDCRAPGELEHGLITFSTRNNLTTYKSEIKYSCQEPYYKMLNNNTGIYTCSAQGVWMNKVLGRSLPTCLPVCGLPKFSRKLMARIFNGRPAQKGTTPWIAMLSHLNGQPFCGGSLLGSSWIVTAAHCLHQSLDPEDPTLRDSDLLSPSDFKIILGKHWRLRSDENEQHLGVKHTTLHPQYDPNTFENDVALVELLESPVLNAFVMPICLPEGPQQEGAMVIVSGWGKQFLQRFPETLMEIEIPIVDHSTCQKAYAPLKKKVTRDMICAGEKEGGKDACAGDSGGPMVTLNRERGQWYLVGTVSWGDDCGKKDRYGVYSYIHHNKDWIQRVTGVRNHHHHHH

B1: (Orn)-IC+SRS-((tBu)A)-PPI-((N-Me)C)+IPD-NH2 (peptide)
peptide: [Orn]ICSRS[tBuAla]PPI[NMeC]IPD-NH2
modifications: disulfide 3-11; N-terminus assumed
SMILES: CC[C@H](C)[C@H](NC(=O)[C@@H](N)CCCN)C(=O)N[C@H]1CSSC[C@@H](C(=O)N[C@H](C(=O)N2CCC[C@H]2C(=O)N[C@@H](CC(=O)O)C(N)=O)[C@@H](C)CC)N(C)C(=O)[C@H]([C@@H](C)CC)NC(=O)[C@@H]2CCCN2C(=O)[C@@H]2CCCN2C(=O)[C@H](CC(C)(C)C)NC(=O)[C@H](CO)NC(=O)[C@H](CCCNC(=N)N)NC(=O)[C@H](CO)NC1=O
B2: ((N-Me)G)-IC+SRSLP-(Oic)-I-(Pen)+IP-(PEG2(13 atoms))-NH2 (peptide)
peptide: [Sar]ICSRSLP[Oic]I[Pen]IP[PEG3]-NH2
modifications: disulfide 3-11; N-terminus assumed
SMILES: CC[C@H](C)[C@H](NC(=O)CNC)C(=O)N[C@H]1CSSC(C)(C)[C@@H](C(=O)N[C@H](C(=O)N2CCC[C@H]2C(=O)NCCOCCOCCOCCC(N)=O)[C@@H](C)CC)NC(=O)[C@H]([C@@H](C)CC)NC(=O)[C@@H]2C[C@@H]3CCCC[C@@H]3N2C(=O)[C@@H]2CCCN2C(=O)[C@H](CC(C)C)NC(=O)[C@H](CO)NC(=O)[C@H](CCCNC(=N)N)NC(=O)[C@H](CO)NC1=O
B3: KIC+SRS-((tBu)A)-PPI-((N-Me)C)+I-NH2 (peptide)
peptide: KICSRS[tBuAla]PPI[NMeC]I-NH2
modifications: disulfide 3-11; N-terminus assumed
SMILES: CC[C@H](C)[C@H](NC(=O)[C@@H]1CSSC[C@H](NC(=O)[C@@H](NC(=O)[C@@H](N)CCCCN)[C@@H](C)CC)C(=O)N[C@@H](CO)C(=O)N[C@@H](CCCNC(=N)N)C(=O)N[C@@H](CO)C(=O)N[C@@H](CC(C)(C)C)C(=O)N2CCC[C@H]2C(=O)N2CCC[C@H]2C(=O)N[C@@H]([C@@H](C)CC)C(=O)N1C)C(N)=O
B4: AIC+SRS-((tBu)A)-PPI-((N-Me)C)+IPD-OH (peptide)
peptide: AICSRS[tBuAla]PPI[NMeC]IPD-OH
modifications: disulfide 3-11; N-terminus assumed
SMILES: CC[C@H](C)[C@H](NC(=O)[C@H](C)N)C(=O)N[C@H]1CSSC[C@@H](C(=O)N[C@H](C(=O)N2CCC[C@H]2C(=O)N[C@@H](CC(=O)O)C(=O)O)[C@@H](C)CC)N(C)C(=O)[C@H]([C@@H](C)CC)NC(=O)[C@@H]2CCCN2C(=O)[C@@H]2CCCN2C(=O)[C@H](CC(C)(C)C)NC(=O)[C@H](CO)NC(=O)[C@H](CCCNC(=N)N)NC(=O)[C@H](CO)NC1=O
B5: ((N-Me)G)-IC+SRS-((tBu)A)-PPI-(Pen)+IP-(PEG5(22 atoms))-NH2 (peptide)
peptide: [Sar]ICSRS[tBuAla]PPI[Pen]IP[PEG6]-NH2
modifications: disulfide 3-11; N-terminus assumed
SMILES: CC[C@H](C)[C@H](NC(=O)CNC)C(=O)N[C@H]1CSSC(C)(C)[C@@H](C(=O)N[C@H](C(=O)N2CCC[C@H]2C(=O)NCCOCCOCCOCCOCCOCCOCCC(N)=O)[C@@H](C)CC)NC(=O)[C@H]([C@@H](C)CC)NC(=O)[C@@H]2CCCN2C(=O)[C@@H]2CCCN2C(=O)[C@H](CC(C)(C)C)NC(=O)[C@H](CO)NC(=O)[C@H](CCCNC(=N)N)NC(=O)[C@H](CO)NC1=O
B6: (ACMP)-IC+SRS-((tBu)A)-PPI-((N-Me)C)+I-NH2 (peptide)
peptide: [cPrCO(1-aminomethyl)]ICSRS[tBuAla]PPI[NMeC]I-NH2
modifications: disulfide 3-11; N-terminus assumed
SMILES: CC[C@H](C)[C@H](NC(=O)[C@@H]1CSSC[C@H](NC(=O)[C@@H](NC(=O)C2(CN)CC2)[C@@H](C)CC)C(=O)N[C@@H](CO)C(=O)N[C@@H](CCCNC(=N)N)C(=O)N[C@@H](CO)C(=O)N[C@@H](CC(C)(C)C)C(=O)N2CCC[C@H]2C(=O)N2CCC[C@H]2C(=O)N[C@@H]([C@@H](C)CC)C(=O)N1C)C(N)=O
B7: AIC+SRS-((tBu)A)-P-(Oic)-IC+IPD-NH2 (HCl salt) (peptide)
peptide: AICSRS[tBuAla]P[Oic]ICIPD-NH2
modifications: disulfide 3-11; also: HCl salt
B8: WIC+SRS-((tBu)A)-PPI-(Pen)+IPD-NH2 (peptide)
peptide: WICSRS[tBuAla]PPI[Pen]IPD-NH2
modifications: disulfide 3-11; N-terminus assumed
SMILES: CC[C@H](C)[C@H](NC(=O)[C@@H](N)Cc1c[nH]c2ccccc12)C(=O)N[C@H]1CSSC(C)(C)[C@@H](C(=O)N[C@H](C(=O)N2CCC[C@H]2C(=O)N[C@@H](CC(=O)O)C(N)=O)[C@@H](C)CC)NC(=O)[C@H]([C@@H](C)CC)NC(=O)[C@@H]2CCCN2C(=O)[C@@H]2CCCN2C(=O)[C@H](CC(C)(C)C)NC(=O)[C@H](CO)NC(=O)[C@H](CCCNC(=N)N)NC(=O)[C@H](CO)NC1=O
B9: ((N-Me)G)-IC+SRSLP-(Oic)-I-(Pen)+IP-(PEG5-CH2CO2H (18 atoms))-NH2 (peptide)
peptide: [Sar]ICSRSLP[Oic]I[Pen]IP[PEG5‑CH2CO2H (18 atoms)]-NH2
modifications: disulfide 3-11
B10: (Orn)-IC+SRS-((tBu)A)-PPI-((N-Me)C)+IPD-NH2 (HCl salt) (peptide)
peptide: [Orn]ICSRS[tBuAla]PPI[NMeC]IPD-NH2
modifications: disulfide 3-11; also: HCl salt
B11: (Orn)-IC+SRS-((tBu)A)-PPI-((N-Me)C)+I-NH2 (peptide)
peptide: [Orn]ICSRS[tBuAla]PPI[NMeC]I-NH2
modifications: disulfide 3-11; N-terminus assumed
SMILES: CC[C@H](C)[C@H](NC(=O)[C@@H]1CSSC[C@H](NC(=O)[C@@H](NC(=O)[C@@H](N)CCCN)[C@@H](C)CC)C(=O)N[C@@H](CO)C(=O)N[C@@H](CCCNC(=N)N)C(=O)N[C@@H](CO)C(=O)N[C@@H](CC(C)(C)C)C(=O)N2CCC[C@H]2C(=O)N2CCC[C@H]2C(=O)N[C@@H]([C@@H](C)CC)C(=O)N1C)C(N)=O
B12: ((N-Me)G)-IC+SRS-((tBu)A)-PPI-(Pen)+IP-(TTDS)-NH2 (peptide)
peptide: [Sar]ICSRS[tBuAla]PPI[Pen]IP-{TTDS(3)-NH2}
modifications: disulfide 3-11
B13: (Nle)-IC+SRS-((tBu)A)-PPI-(Pen)+IPD-NH2 (peptide)
peptide: [Nle]ICSRS[tBuAla]PPI[Pen]IPD-NH2
modifications: disulfide 3-11; N-terminus assumed
SMILES: CCCC[C@H](N)C(=O)N[C@H](C(=O)N[C@H]1CSSC(C)(C)[C@@H](C(=O)N[C@H](C(=O)N2CCC[C@H]2C(=O)N[C@@H](CC(=O)O)C(N)=O)[C@@H](C)CC)NC(=O)[C@H]([C@@H](C)CC)NC(=O)[C@@H]2CCCN2C(=O)[C@@H]2CCCN2C(=O)[C@H](CC(C)(C)C)NC(=O)[C@H](CO)NC(=O)[C@H](CCCNC(=N)N)NC(=O)[C@H](CO)NC1=O)[C@@H](C)CC
B14: (Azetidine-2-carboxylic acid)-IC+SRS-((tBu)A)-PPI-(Pen)+IPD-NH2 (peptide)
peptide: [Aze]ICSRS[tBuAla]PPI[Pen]IPD-NH2
modifications: disulfide 3-11
B15: ((N-Me)G)-IC+SRSL-((1S,2S,5R)-3-azabicyclo[3.1.0]hexane-2-carboxylic acid)-PI-(Pen)+IPE-NH2 (peptide)
peptide: [Sar]ICSRSL[Pro(3S,4R-methano)]PI[Pen]IPE-NH2
modifications: disulfide 3-11; N-terminus assumed
SMILES: CC[C@H](C)[C@H](NC(=O)CNC)C(=O)N[C@H]1CSSC(C)(C)[C@@H](C(=O)N[C@H](C(=O)N2CCC[C@H]2C(=O)N[C@@H](CCC(=O)O)C(N)=O)[C@@H](C)CC)NC(=O)[C@H]([C@@H](C)CC)NC(=O)[C@@H]2CCCN2C(=O)[C@@H]2[C@H]3C[C@H]3CN2C(=O)[C@H](CC(C)C)NC(=O)[C@H](CO)NC(=O)[C@H](CCCNC(=N)N)NC(=O)[C@H](CO)NC1=O
B16: (Nva)-IC+SRS-((tBu)A)-PPI-(((N-Me)C))+I-NH2 (peptide)
peptide: [Nva]ICSRS[tBuAla]PPI[NMeC]I-NH2
modifications: disulfide 3-11; N-terminus assumed
SMILES: CCC[C@H](N)C(=O)N[C@H](C(=O)N[C@H]1CSSC[C@@H](C(=O)N[C@H](C(N)=O)[C@@H](C)CC)N(C)C(=O)[C@H]([C@@H](C)CC)NC(=O)[C@@H]2CCCN2C(=O)[C@@H]2CCCN2C(=O)[C@H](CC(C)(C)C)NC(=O)[C@H](CO)NC(=O)[C@H](CCCNC(=N)N)NC(=O)[C@H](CO)NC1=O)[C@@H](C)CC
B17: aIC+SRSLP-(Oic)-I-(Pen)+I-OH (peptide)
peptide: [dA]ICSRSLP[Oic]I[Pen]I-OH
modifications: disulfide 3-11; N-terminus assumed
SMILES: CC[C@H](C)[C@H](NC(=O)[C@H]1NC(=O)[C@H]([C@@H](C)CC)NC(=O)[C@@H]2C[C@@H]3CCCC[C@@H]3N2C(=O)[C@@H]2CCCN2C(=O)[C@H](CC(C)C)NC(=O)[C@H](CO)NC(=O)[C@H](CCCNC(=N)N)NC(=O)[C@H](CO)NC(=O)[C@@H](NC(=O)[C@@H](NC(=O)[C@@H](C)N)[C@@H](C)CC)CSSC1(C)C)C(=O)O

target: T1, recombinant human MASP1 active protease …; assay: cell-based or functional assay

Row | Binder | human MASP1 IC50
1 | B1 | 2.4 nM
2 | B2 | 1.1 nM
3 | B3 | 2.4 nM
4 | B4 | 2.45 nM
5 | B5 | 2.5 nM
6 | B6 | 2.6 nM
7 | B7 | 2.5 nM
8 | B8 | 2.4 nM
9 | B9 | 2.4 nM
10 | B10 | 2.4 nM
11 | B11 | 2.6 nM
12 | B12 | 2.4 nM
13 | B13 | 2.6 nM
14 | B14 | 2.4 nM
15 | B15 | 2.5 nM
16 | B16 | 1.1 nM
17 | B17 | 2.6 nM

target: recombinant human MASP2 active protease (amino acids 297-686, C-terminal His Tag) (human, UniProt O00187 297-686); assay: cell-based or functional assay
Sequence (O00187 other isoform, or with tags, fused parts or gaps limits assumed): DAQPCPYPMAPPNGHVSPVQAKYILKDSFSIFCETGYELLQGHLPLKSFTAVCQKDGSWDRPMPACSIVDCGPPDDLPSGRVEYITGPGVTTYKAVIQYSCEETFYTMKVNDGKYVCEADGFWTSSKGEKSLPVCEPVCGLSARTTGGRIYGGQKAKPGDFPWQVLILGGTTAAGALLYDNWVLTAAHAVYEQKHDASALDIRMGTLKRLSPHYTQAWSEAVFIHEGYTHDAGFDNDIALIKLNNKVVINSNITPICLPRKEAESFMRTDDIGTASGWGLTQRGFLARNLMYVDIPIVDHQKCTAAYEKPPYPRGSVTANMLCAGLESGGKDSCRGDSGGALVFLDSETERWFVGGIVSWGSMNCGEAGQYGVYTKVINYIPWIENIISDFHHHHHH

Row | Binder | human MASP2 IC50
18 | B1 | 150 nM
19 | B2 | 23 nM
20 | B3 | 110 nM
21 | B4 | 185 nM
22 | B5 | 48 nM
23 | B6 | 360 nM
24 | B7 | 190 nM
25 | B8 | 64 nM
26 | B9 | 110 nM
27 | B10 | 170 nM
28 | B11 | 130 nM
29 | B12 | 58 nM
30 | B13 | 38 nM
31 | B14 | 68 nM
32 | B15 | 70 nM
33 | B16 | 50 nM
34 | B17 | 92 nM
